Test results from paper PMC3316568, “Crystal Structure of Streptococcus pyogenes Csn2 Reveals Calcium-Dependent Conformational Changes in Its Tertiary and Quaternary Structure” (PLoS ONE, 2012).

Key:
Csn2 [1] = biological target: T1, Csn2 (Streptococcus pyogenes, UniProt Q99ZV9 1-220); test: EMSA; no added metal; DNA:Csn2 tetramer 1:0, 1:1, 1:10; non-specific binding; 50 mM NaCl, 20 mM HEPES pH 7.5, room temperature, 20 min; 150 ng DNA; 10% native Tris-glycine PAGE, ethidium bromide stain; conditions: protein: recombinant; tags: (His)6-MBP tag removed by TEV protease; chain copies: 4
T1 sequence: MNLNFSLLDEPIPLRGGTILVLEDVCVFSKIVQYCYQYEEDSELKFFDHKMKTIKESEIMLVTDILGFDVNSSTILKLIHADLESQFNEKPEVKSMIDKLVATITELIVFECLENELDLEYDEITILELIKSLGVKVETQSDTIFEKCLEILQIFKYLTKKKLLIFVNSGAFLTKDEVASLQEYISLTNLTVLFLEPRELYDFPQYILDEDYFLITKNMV

[2] = biological target: the molecule itself; test: crystal structure; selenomethionyl Csn2, 2.2 Å, MAD; crystals at 20°C from 150 mM KCl, 4 mM DTT, 100 mM HEPES pH 7.0 with 2.3 M sodium acetate pH 7.0; no calcium added; dimer in the asymmetric unit, tetramer with the symmetry-related dimer
[3] = biological target: the molecule itself; test: SEC; analytical, Superdex 200 10/300 GL; 200 mM NaCl, 2 mM DTT, 10 mM Tris-HCl pH 8.0; 0.5 mL of 1.0 mg/mL Csn2; no calcium added
Csn2 [4] = biological target: T1, Csn2; test: EMSA; no added metal; DNA:Csn2 tetramer 1:0, 1:1, 1:10; 50 mM NaCl, 20 mM HEPES pH 7.5, room temperature, 20 min; 150 ng DNA; 10% native Tris-glycine PAGE, ethidium bromide stain; conditions: protein: recombinant; tags: (His)6-MBP tag removed by TEV protease; chain copies: 4

B1: control DNA 90 bp (ERD1 promoter) (dsDNA)
DNA 1: TCTTAAAACTCCACAAACATTACGGCAGTTAGAATTTAAATTTATCTTGGAATATTGTTTGTATATTATTAACAAATGTAAATTGGTGTA
DNA 2: TACACCAATTTACATTTGTTAATAATATACAAACAATATTCCAAGATAAATTTAAATTCTAACTGCCGTAATGTTTGTGGAGTTTTAAGA
binding result (Csn2 [1]): binds

B2: Selenomethionyl Streptococcus pyogenes Csn2 (natural protein)
chain: T1 sequence
modifications: selenomethionine (SeMet labelling)
notes: Csn2, CRISPR-associated protein of the Nmeni subtype (type II-A), Streptococcus pyogenes; same construct as m1, expressed as selenomethionyl protein; residues up to 220 are named for the structure; Same construct as m1 with selenomethionine; Two monomers (A, B) in the asymmetric unit; the tetramer is formed with a symmetry-related dimer; also called SeMet Csn2; selenomethionyl S. pyogenes Csn2; …
stoichiometry N [2]: 4

B3: Streptococcus pyogenes Csn2 (native) (natural protein)
chain: T1 sequence
notes: Csn2, CRISPR-associated protein of the Nmeni subtype (type II-A), Streptococcus pyogenes; the csn2 gene cloned into pHMGWA; monomeric molecular weight printed as 26.0 kDa; residues up to 220 are named for the structure; also called Native Csn2; source: E. coli BL21 (DE3), purified (HisTrap HP, TEV cleavage, second HisTrap HP, Superdex200); not shown: His6, N-terminal, cleaved; MBP, N-terminal, …
stoichiometry N [3]: 4

B4: S. pyogenes CRISPR DNA 90 bp (dsDNA)
DNA 1: TTTTAGACAAAAATAGTCTACGAGGTTTTAGAGCTATGCTGTTTTGAATGGTCCCAAAACTGCGCTGGTTGATTTCTTCTTGCGCTTTTT
DNA 2: AAAAAGCGCAAGAAGAAATCAACCAGCGCAGTTTTGGGACCATTCAAAACAGCATAGCTCTAAAACCTCGTAGACTATTTTTGTCTAAAA
binding result (Csn2 [4]): binds
